Test results reported in the DeepSol protein solubility set.

Experiment: soluble on expression in E. coli; label from the status in PepcDB or PDB records

Sequence | soluble on expression in E. coli
MSLAANMYRVGDYVYFENSSSNPYLIRRIEELNKTASGNVEAKVVCFYRRRDISNTLIMLADKHAKEIEEESETTVEADLTDKQKHQLKHRELFLSRQYESLPATHIRGKCSVALLNETESVLSYLDKEDTFFYSLVYDPSLKTLLADKGEIRVGPRYQADIPEMLLEGESDEREQSKLEVKVWDPNSPLTDRQIDQFLVVARAVGTFARALDCSSSVRQPSLHMSAAAASRDITLFHAMDTLYRHSYDLSSAISVLVPLGGPVLCRDEMEEWSASEASLFEEALEKYGKDFNDIRQDFLPWKSLTSIIEYYYMWKTTDRYVQQKRLKAAEAESKLKQVYIPTYSKPNPNQISTSNGKPGAVNGAVGTTFQPQNPLLGRACESCYATQSHQWYSWGPPNMQCRLCAICWLYWKKYGGLKMPTQSEEEKLSPSPTTEDPRVRSHVSRQAMQGMPVRNTGSPKSAVKTRQAFFLHTTYFTKFARQVCKNTLRLRQAARRPFVAINYAAIRAECKMLLNSEGHHHHHH | not soluble
MEKKITQEGLARMIDKGMGTLLALPEIEKKKKSGDLPDNFKMEDGFGVYRVEVGGNEYLCVTNILCNKCERVNGKVKRCEAHKKKRKARKVRKDGDVADDTSDREKLGGLRHVNDEEEEEDKIEGAVTPDFVMTPGIGGAIILVPVDAKNNDRAGPPAKGLNHVKGILVRGAGNIPQFIPNDRLTKAHKLRFDNYIEGELNLVNGKEVFVPNNLGAAKMDEKNAQDVAKAAVADKVDQKVVDAIGKDMVVAVQVDVADNGMPVMKVLEGKPKDKETPVGIIVKANDQVQFVQIVGRELGGGKDAKMMPCTIPENGKVGDVIADVYVNKEGKAVSAKPGDAPAGAPVIGQVIVGQNDQLVFVAKGENKDDAVKKGAKMTPEMKEKLEQAQAKVQAAVTGQSADHIQEQVNRIGVPEAAATSAANGGNNAGGGGSSAEVRSVGFGAQQFGGSQFARPIPAGGGGGGSGGYGAGGGGSGGYGAGGAGGARNSASNGSYGSSANEVKSVGFGAQQYGGSVFAKPSGTGGGYVSAGSSARKSGESGAGGGGAGGGKAGGAKNSASYGSSANEVKSVGFGAQQYGGSVFIRK | not soluble
MSKEDNNAVVGHQPATKVGGRRIADHGNQRAQNSTNSSDAVREAMDFDLPAKMEKAYPTAAVKQVHEKPTPAIQPAHYNRATGNGQVRNIPQKQNH | not soluble
SNAMSFIAIIPARYASTRLPGKPLADIAGKPMVVHVMERALASGADRVIVATDHPDVVKAVEAAGGEVCLTRADHQSGTERLAEVIEHYGFADDDIIVNVQGDEPLVPPVIIRQVADNLAACSAGMATLAVPIASSEEAFNPNAVKVVMDAQGYALYFSRATIPWERERFAQSKETIGDCFLRHIGIYAYRAGFIRRYVNWAPSQLEQIELLEQLRVLWYGEKIHVAVAKAVPAVGVDTQSDLDRVRAIMLNQ | soluble
MNIQEKFKAIRKQRKLSLRDLANVAGSTSSISDFEKGKTNLSNDVLLQLLGFMVVEINEIFEWSAFQDAEFLELMTQVENALQTQDITVLIQKRETLQEFFVAKNHYIYHIISLVLDVIISKLQEKEPTPEIISELTDYFFSLDYWTNLDVGLLGNIVHHFTTETLVLFTDSILKNTPNQLRNNLDRIKIDTVINCLSVLLARREKNASQELLQLLSRKQFPTYFTYEKLCISEFKAIYMYIWCDKEEADNIHQTILKTVSLLFTKDEANKWDDYFKEIISSADIKK | not soluble
LLPGAPDCRVYGWIYSSPTPGRAWVLLVHGLGGDHTFFEEPLGGYRVAYDLALRGFKVLAIDAAGHGESCIPGGESWRDKALTLEPGEFFLYHVYLSGVRAVEAALELGAEPG | not soluble
MGSDKIHHHHHHMGEQQLDCALDLMRRLPPQHCDKNLTDLIDLCPHLVDDLLSTIDQPLKIAADRETGKQYLLCDYNRDGDSYRSPWSNTYDPPLEDGQLPSEKRRKMEIEANAAFESYRDLYFEGGVSSVYFWDLDNGGFAGIVLIKKEGDGAKNITGCWDSIHVIEITERARQAHYKLTSTIMLWLQTNKSSSGVMNLGGSLTRQHEMDAPINDQNTHLANMGRMIEDQESKMRLTINEIYFGKTKKVMSDLRSTEKQSELEKQDEIVRELNNAMANRGN | not soluble
MGSDKIHHHHHHMDDDSNQKPLFHMALGVLTSLTPPQHHIELVDEHFHDKINYDGDYDMVGITSRTIEATRAYEIADEFRKRGKTVVLGGLHISFNPEEAAAHADCIVVGEADNLWTTLLDDVANNRLKERYDSKDFPPVKAITPLDYARIAKASKRTKVDGTKSIPIYVTRGCPFNCSFCVTPNFTGKQYRVQDPKLLKHQIEEAKKYFFKANGKNSKPWFMLTDENLGINKKKLWESLDLLKECDITFSVFLSINFLEDPTTVKKLVDAGCNFVLAGLESIKQSTLEAYNKGHVNSAEKYSKIIEDCRKAGLNIQGNFLFNPAIDTFEDIDELVQFVKKNHIFMPIFQIITPYPGTQMYHEYRESGLITIEDWEKYNALHLVIKSDRYEPLLFQYKVLKSYVEVYTWKEILLRTLYNPRKLINLVTSIAFKKHLAAQLKAFERNHKMNPAMLSGVKPVMNG | not soluble
SQKQKALLQRVETDITSVVDNFTQIVNVSRVSDPPVKNSQETYMMEMRASRMATQVLLKDFLMSLWSVVNLLPHQWWQVQAADSLLKLVSELKQTAIFSGFASLNDHVEQRIEEFDQEAEKTNRLLARIADDASANLKELESHYYSSAQRLTLDI | not soluble
YCICNQVSYGEMVGCDNQDCPIEWFHYGCVGLTEAPKGKWYCPQCTAAMKRRGSRHK | soluble
MIFHDVVESDLHDWECDDDYVCKFCTVRVNNWKIEIYQLWHYFFFLKDVVGVIVRKLNIAIDRDYTCEGLHVAGLIGYDYDKVEEYTGMCTICKLGDCGGMCRRVVEHCKKCGPIQEGVFETPFEKPHHFESLEITSFTIDCLLYGNRFRPTLVNFKNAPITVDSLSINAPSSGIPKVFLSAMMISKWKLLILKTCEDSPYAMEELQLSLTGKMLEEMSNNDYKVKHFRKCFPTKKMSIKILSQIENIQDIRKLCIQEKNLDLAIDIICDKSLLLKFWVSQKNTRGSFWKMKML | not soluble
MAHHHHHHMGFFKKNKRQSFNRNYEGEVQCNNIILGGTFYKHCENDLLLKNELENLVPYFNGRIFLENKEEIGKVDEILGPINEFYFSVKLKEGIRAKSFSSDTHFFIDKSQTLPLSRFLPQEKNSQSLVKKKKKKSNRDKKKNSFNQNNKKPNNYNFKGNNNRNDHNNRNDHNNRNDHNNRNDHNNRNDRNNRNNKNSFRNRSNSSRKFNNQRGRF | not soluble
MGSDKIHHHHHHMRYLSKDILEEVITQRPSDSYKSNFGRVVLIGGNRQYGGAIIMSTEACINSGAGLTTVITDVKNHGPLHARCPEAMVVGFEETVLLTNVVEQADVILIGPGLGLDATAQQILKMVLAQHQKQQWLIIDGSAITLFSQGNFSLTYPEKVVFTPHQMEWQRLSHLPIEQQTLANNQRQQAKLGSTIVLKSHRTTIFHAGEPFQNTGGNPGMATGGTGDTLAGIIAGFLAQFKPTIETIAGAVYLHSLIGDDLAKTDYVVLPTKISQALPTYMKKYAQPHTAPDSELLEQKRSR | not soluble
MGSDKIHHHHHHMREIEHAKYSRLKNAIYKDASVALLTQHGKEKVVTPILASAIGCEVTLVTGFDTDQLGTFTRDIPRAGTQIEAARKKARIGMELAHLPLGLASEGSFGPDPFTGLFSLNVEMVVWIDDTLGIEVVGVASGRTNFSHLLAANWEQAEAFARAIDFPEHGIVVRPRHEDDSRVRKGIADWESLREAFFWACGEADNGCVFLETDVRAHMNPMRMEIIASATRDLADKLATPCPVCNTPGFQIVERVPGLPCEGCGAPTRDTWADIHRCGRCGHQVALERLEKAAPAGHCDWCNP | not soluble
MSLKIAILCASGKVGKEISKEALKRNLEPVCFVRNSSKMNEFLPQAKIVQRDLFELDSKDLIDFDIIIDAFGEWENLSLHKKHIECLSVILQGSKAKLFVVGGAGSLYMDENHTTRLMDMPDFPKEYLDIAKASAEVLEFLRNEKGFKWVYVSPSAIFSPDLPKSNHYKIIGEKFEVNANNESKISYSDYASAMIDIVLNSCYENTRIGVISLEGHHHHHH | soluble
MDTLAFINRALVEEGYSLKDIKLVLITDFEPSSVEAIRRLLAVNQGVSFIGRKYVKEVLEKFGLRNVRFRAVEEIPSLEFKLPESGTVKVLPFRNSPQEASAGYLLEEERILFSGKFLGSFGEKGDTIQIFHRVFFPCRNILDYNVGLLESIGEEFEVFPFYGEKQKLSAKTLKEYFNYTVKGSVLEREVILGLVNGVLLNLSDEERENLLSSIGYLAEVDDKVIVDFYTEPNLFYEEFVNTLPDAVKSKEEFYRIVEKLLEHNFYVPLRAV | not soluble
MKELRVKNQYEKHKEVEAAQGVKILGKDLEKTLAGLPLLVAYKDDEIPVLKDELIHELKQTLNAIKLEEKGVYVQASTLGSLEALLEFLKTSEVPYAGINIGPVHKKDVMKASVMLEHDPQYAVILAFDVRIERDAQEMADSLGVRIFSAEIIYHLFDAFTKYRQDYKKQKQEEFKHIAVFPCKMKILPQYIFNSRDPIVIGVTVEAGQVKQGTPMCVPSKNFVDIGIVTSIEINHKQVDVAKKGQEVCVKIEPIPGESPKMFGRHFEATDILVSKISRQSIDALKDWFRDEMQKSDWQLIVELKKVFEII | soluble
MLKGHLHSVESLGTVDGPGLRYILFTQGCLLRCLYCHNPDTWKISEPSREVTVDEMVNEILPYKPYFDASGGGVTVSGGEPLLQMPFLEKLFAELKENGVHTCLDTSAGCANDTKAFQRHFEELQKHTDLILLDIKHIDNDKHIRLTGKPNTHILNFARKLSDMKQPVWIRHVLVPGYSDDKDDLIKLGEFINSLDNVEKFEILPYHQLGVHKWKTLGIAYELEDVEAPDDEAVKAAYRYVNFKGKIPVEL | not soluble
MGSDKIHHHHHHMDVNEIRENAKKLMELMMLDKPFVAVKLAKSKEEIPEGYETLDEEKRHCEMIQMARLERKKLYATVDKHLCKGGAYAMGVFRNPPEPLATGKLYVKLGNFKDEEAAKKTVDAIPKVEEEIYATVYAPLDETDFIPDSIVFIGEPLYALRLVQAILYHKGGRFQADFSGIQSLCADAVAAVYTRKAPNMTLGCNGSRKYAGIKPEEVVVAFPPEKLKDIVEAIEHFRQVWTCGH | not soluble
MSLDNESLLAILNNWSATNYAKGNYILREISSKFLAKISIDSNDYLLDAGCGDGSFTQMLANLVPDGYVLGLDRSKTMIDYANKHCRSINVRFDIGDIQEPIIYGPFDNILSFWCLHWTDLEKSLSNLYHVLKPGGKICAIFSSGKQSTLFEVLNSLQFQNLYPDVAKNVVQSKMMRENYSVQCRRALDNLPFKSISFVVEHCQVELPDLGLFENFIHGAPLFKDLPGKMYQDIVNGMVQFFDEYCKKKYGGKWVYETTPYFLTITREGHHHHHH | soluble
MAHHHHHHMPTASASREPLVPSINFSMVCPGVYRSGYPTKKNYSFLCALRLRSILYLCPEDYAESNLKFCEENGIHVLRFPTEGNKEPFCDVSEPLMHRILSAICDTRNLPLLIHCNKGKHRTGTVVACLRHLQGWSLVSIFEEYKRFASDKARVGDQQYVELYHPIVKLTPPFVALWVTVTPRVTLVTSDRELMEAEAMQLGYSLLAPDKHLMKNGSSTNKSTAPTAAAASGAASVTAAPAAAAAATAGSGPTVAVSTSGPSAAGAMQQQQPSQPVTSAASASASNSGHSLAPSLMATAATPAAADR | not soluble
